Publication PMC5727390, “Targeted inhibition of STAT/TET1 axis as a therapeutic strategy for acute myeloid leukemia”

Target: STAT3 (UniProt P40763 127-722)
Assay: EMSA; no compound; Signosis EMSA Assay Kit, manufacturer's protocol with minor modifications; buffer, salt, pH and temperature not stated
Conditions: chain copies: 2; label: 5' biotin on both strands; blunt

Sequence of STAT3 (P40763 127-722): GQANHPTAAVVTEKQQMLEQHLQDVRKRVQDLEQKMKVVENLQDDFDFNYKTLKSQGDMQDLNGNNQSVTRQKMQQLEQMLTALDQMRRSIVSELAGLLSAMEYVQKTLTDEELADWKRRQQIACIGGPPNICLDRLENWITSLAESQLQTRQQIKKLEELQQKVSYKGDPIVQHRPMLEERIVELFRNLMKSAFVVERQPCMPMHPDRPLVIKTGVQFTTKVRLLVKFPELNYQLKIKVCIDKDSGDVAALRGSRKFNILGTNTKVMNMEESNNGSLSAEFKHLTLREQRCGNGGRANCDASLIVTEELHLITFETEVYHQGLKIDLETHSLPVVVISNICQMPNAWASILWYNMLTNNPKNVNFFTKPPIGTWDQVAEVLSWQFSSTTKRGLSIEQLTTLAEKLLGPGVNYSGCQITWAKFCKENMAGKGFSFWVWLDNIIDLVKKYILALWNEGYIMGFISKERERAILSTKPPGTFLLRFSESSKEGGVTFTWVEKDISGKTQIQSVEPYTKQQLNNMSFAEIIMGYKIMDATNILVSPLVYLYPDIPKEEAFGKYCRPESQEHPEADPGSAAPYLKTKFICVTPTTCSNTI

B1: TET1-CPG probe (dsDNA)
DNA 1: CCGGTAGGCGTCCTCCGCGACCCGC
DNA 2: GCGGGTCGCGGAGGACGCCTACCGG
binding result: binds
